Assay results taken from publication PMC5687603.

How the values were obtained:
[1] = DHE staining, flow cytometry, HEK293; conditions: glycan lost; control: Skl (wild type)
[2] = GSH/GSSG-Glo luminescence assay; conditions: glycan lost; control: Skl (wild type)

B1: short-form Klotho (Skl): Skl3N (protein)
parent chain: MLARAPPRRPPRLVLLRLLLLHLLLLALRARCLSAEPGQGAQTWARFARAPAPEAAGLLHDTFPDGFLWAVGSAAYQTEGGWRQHGKGASIWDTFTHHSGAAPSDSPIVVAPSGAPSPPLSSTGDVASDSYNNVYRDTEGLRELGVTHYRFSISWARVLPNGTAGTPNREGLRYYRRLLERLRELGVQPVVTLYHWDLPQRLQDTYGGWANRALADHFRDYAELCFRHFGGQVKYWITIDNPYVVAWHGYATGRLAPGVRGSSRLGYLVAHNLLLAHAKVWHLYNTSFRPTQGGRVSIALSSHWINPRRMTDYNIRECQKSLDFVLGWFAKPIFIDGDYPESMKNNLSSLLPDFTESEKRLIRGTADFFALSFGPTLSFQLLDPNMKFRQLESPNLRQLLSWIDLEYNHPPIFIVENGWFVSGTTKRDDAKYMYYLKKFIMETLKAIRLDGVDVIGYTAWSLMDGFEWHRGYSIRRGLFYVDFLSQDKELLPKSSALFYQKLIEDNGFPPLPENQPLEGTFPCDFAWGVVDNYVQVSPLTKPSVGLLLPH
- other: antioxidant activity (lowering of intracellular O2-) [1]: decreases
- other: antioxidant activity (raising of GSH/GSSG ratio) [2]: abolishes

B2: short-form Klotho (Skl): SklN285A (protein)
parent chain: MLARAPPRRPPRLVLLRLLLLHLLLLALRARCLSAEPGQGAQTWARFARAPAPEAAGLLHDTFPDGFLWAVGSAAYQTEGGWRQHGKGASIWDTFTHHSGAAPSDSPIVVAPSGAPSPPLSSTGDVASDSYNNVYRDTEGLRELGVTHYRFSISWARVLPNGTAGTPNREGLRYYRRLLERLRELGVQPVVTLYHWDLPQRLQDTYGGWANRALADHFRDYAELCFRHFGGQVKYWITIDNPYVVAWHGYATGRLAPGVRGSSRLGYLVAHNLLLAHAKVWHLYNTSFRPTQGGRVSIALSSHWINPRRMTDYNIRECQKSLDFVLGWFAKPIFIDGDYPESMKNNLSSLLPDFTESEKRLIRGTADFFALSFGPTLSFQLLDPNMKFRQLESPNLRQLLSWIDLEYNHPPIFIVENGWFVSGTTKRDDAKYMYYLKKFIMETLKAIRLDGVDVIGYTAWSLMDGFEWHRGYSIRRGLFYVDFLSQDKELLPKSSALFYQKLIEDNGFPPLPENQPLEGTFPCDFAWGVVDNYVQVSPLTKPSVGLLLPH
- other: antioxidant activity (raising of GSH/GSSG ratio) [2]: abolishes
